Experimental data from patent US8338168B2.

Legend:
[1] = target: RDPrHIV mutant glycoprotein (feline endogenous virus RD114)
[2] = target: CH-296 retronectin fragment (Homo sapiens (Human)) (UniProt P02751)

| Substance | infectivity of MLV pseudotyped vectors on TE671 cells [1] [fold] | transduction efficiency of human CD34+ cells on retronectin-coated plates against no retronectin [2] [fold] |
| --- | --- | --- |
| MLV viral core protease (enzyme) | < 20 |  |
| RD114/TR chimeric glycoprotein |  | 10 |
